B1: Serine/threonine-protein kinase LATS1, residues 98 to 141; numbered along this chain, O95835 (parent)
chain: TSEVNPQMLQDLQAAGFDEDMVIQALQKTNNRSIEAAIEFISKM

Variants of: B1
Assay: abundance fitness (aPCA) (normalised: wild type 0, dead -1); higher = more abundant; growth selection in yeast, the domain comes from the species named
Conditions: Homo sapiens

Abundance fitness of substitutions, site by site:
S2: I -0.035; T 0.075; H -0.168; A -0.07; M -0.143; G 0.029; C -0.154; F -0.108; L -0.219
Q27: R -0.042; V -0.043; H -0.269; S -0.071; G -0.292; A -0.125; L -0.068; C -0.273; E -0.041; M -0.123
V22: G -0.008; E -0.355; W -0.796; T -0.262; A 0.18; P -0.47; H -0.618; S 0.183; Y -0.824; C 0.11; F -0.807
E39: V -0.717; W -0.728; S -0.146; Q -0.166; K -0.115; N -0.111; C -0.361; A -0.103
K28: R -0.048; H 0.073; A 0.12; I -0.445; F -0.148; G -0.08; S -0.041; T -0.259; W -0.444; C -0.129
L9: H -0.35; W -0.649; V -0.045; G -0.481; K 0.136; F -0.082
M21: L 0.032; N -0.148; Q 0.077; P -0.491; V 0.059; A -0.019; D 0.023
E35: W -0.473; K -0.169; P -0.164; Q -0.141; M -0.307; V -0.468
I38: V -0.024; M -0.016; L -0.078; G -0.169; P -0.147; H -0.203; R 0.003
K43: P -0.333; R -0.027; N -0.038; C -0.156; S -0.035; I -0.435; E 0.133
Q13: D -0.538; I 0.071; Y -0.53; E -0.18; S -0.127; M 0.046; T -0.002; W -0.851; L 0.104
I23: D -0.283; R 0.024; W -0.373; T -0.041; M -0.055; F -0.261; L -0.188
S33: L -1.25; D -0.4; F -0.628; P -0.627; R -0.907; Q -1.02; H -0.934; A -0.797
M44: R -0.057
I34: G -0.266; F -0.192; Q -0.09; A -0.043; W -0.505; Y -0.468; P -0.051
G16: A -0.725; Q -0.953; N -0.494; R -1.1; I -1.34; H -0.275; C -0.914; S -0.88; M -0.962
A14: L -0.188; Q -0.132; G -0.19; W -0.706; Y -0.339; R -0.095
D11: H -0.182; L -0.153; K 0.083; M -0.154; Y -0.086; F -0.045
N30: K -0.021; S -0.107; F -1.05; P -0.529; L -1.14; G 0.045; M -0.553; H -0.206; Q -0.055; W -1.07; D -0.093; A -0.193
I41: Y -0.434; E -0.165; W -0.648; A -0.282; G -0.282; M 0.046; V -0.411
S42: Q 0.127; Y -0.142; W -0.14; C -0.258; L -0.248; P -0.401; T 0.103; D 0.033
L12: I -0.364; P -0.644; Y -1.06; R -0.715; E -0.477; M -0.119

— the Human Domainome abundance scans (Beltran et al. 2025)
